Results reported in article PMC8439434 (2021).
Like-named read-outs stand apart in the source and are kept apart here.

Columns and labels:
HLA-B*08:01 [1] = target: T1, HLA-B*08:01 (human (endogenous in the Steinlin EBV …))
[2] = target: HLA-C*07:01 purified from the Steinlin EBV transformed homozygous cell line (human (endogenous in the Steinlin EBV …))
HLA-B*08:01 [3] = target: T1, HLA-B*08:01; remark: listed apart in the source

Question: Which IC50 (HLA-B*08:01 [1]) does the source give for SRGTSPARM [SARS-CoV-2 nucleocapsid peptide SRGTSPARM (R203/G204)] here?
Answer: > 50 µM

Question: And the IC50 [2]?
Answer: > 50 µM

Question: For IRSSYIRVL [peptide 3424.0028 (IRSSYIRVL, DNA replication licensing factor MCM5 289-297)], which IC50 (HLA-B*08:01 [3]) is on record?
Answer: 0.301 µM
